The values below come from patent US9206242B2, “Application of actin-binding protein to disease associated with cell motility” (NATIONAL UNIVERSITY CORPORATION NAGOYA UNIVERSITY, priority 2005, dated 2015).

For test [1], the system named is phosphorylation of Girdin. Put plainly: EGF-induced phosphorylation of endogenous Girdin in COS7 cells (immunoprecipitation, Western blot with anti-P-Girdin antibody). The class given is cell-based. To be noted: EGF 50 ng/ml 15 min, PD98059 50 μM. The procedure:
Immunoprecipitates with anti-Girdin antibody were subjected to Western blot analyses with anti-P-Girdin and anti-Girdin antibodies. Activation of Akt was monitored by Western blot analyses with anti-phospho Akt antibody.
COS7 cells were transfected with either control or Akt siRNAs, and incubated for 48 hrs. Cells were then stimulated with EGF for 30 min and the phosphorylation of Girdin was analyzed as described in FIG. 2e.
Next, whether the anti-P-Girdin Ab can detect the endogenous Girdin phosphorylated in response to external stimuli that physiologically activate endogenous Akt was given consideration to. […] Furthermore, the phosphorylation of Girdin was inhibited when cells were treated with the PI3K inhibitors LY294002 and Wortmannin, but not with the mitogen-activated protein kinase kinase 1 (MEK1) inhibitor PD98059. It has therefore been concluded that the phosphorylation of Girdin is induced by EGF in a PI3K-dependent manner. […] Moreover, Girdin phosphorylation was undetectable in the cells transfected with Akt small interfering RNA (Akt siRNA). These findings confirmed that Akt activation is necessary for Girdin phosphorylation.
On the technique in general: Immunoblotting shows a protein as a band on a membrane.

Test [2] has as its target F-actin. Description: F-actin cosedimentation assay. The format is binding. The procedure: A fixed amount of GST-CT2 was mixed with various amounts of F-actin, followed by ultracentrifugation. Amounts of the free and bound GST-CT2 were quantified, and the percentage of bound GST-CT2 was plotted against the concentration of F-actin, and the Kd value was calculated by Scatchard analysis.
GST-CT was phosphorylated by Akt in vitro (cf. FIG. 6d, (b)) and was subjected to an actin cosedimentation assay. A fixed amount of GST-CT was phosphorylated in vitro and mixed with various amounts of F-actin, followed by ultracentrifugation. The amount of phosphorylated GST-CT bound to F-actin in the pellet fraction was monitored by Western blot analyses with anti-P-Girdin antibody.
F-actin cosedimentation assays were performed according to the manufacturer's protocol (Cytoskeleton). […] The cosedimented proteins were resolved by SDS-PAGE and detected by either Coomassie Brilliant Blue (CBB) staining or Western blot analyses using anti-GST antibody (Cell Signaling Technology) or anti-phospho Girdin Ab. For quantitative analyses, a fixed concentration of GST-Girdin CT2 (1 μM) was mixed with increasing amounts of F-actin (0-2.5 μM) in polymerization buffer and incubated at room temperature for 30 min. […] Protein bands were detected by CBB staining, and scanned and quantified using the software program WinROOF (Mitani Corp., Fukui, Japan).

Test [3] is described as follows: Protein-lipid overlay assay (PIP-Strip), PI(4)P. To be noted: 4° C. The class given is binding. The procedure: (§1) The lipid binding of both GST-CT and GST-CT ΔPB was detected using anti-Girdin antibody, whereas that of phosphorylated GST-CT was detected by anti-P-Girdin antibody. The various lipids spotted on the membrane are indicated in (d).
(§2) GST fusion proteins were expressed in DH5 ? or BL21-CodonPlus (Stratagene) cells and purified using conventional methods. Binding of the purified GST-CT to phospholipids was examined at 4° C. using a PIP-Strip (Echelon Bioscience) according to the manufacturer's protocol. Bound GST-CT proteins were detected with either anti-Girdin or anti-phospho Girdin antibodies.

Test [4] can be described thus: Protein-lipid overlay assay (PIP-Strip), PI(3)P. The format is binding. As to conditions: 4° C. The procedure: as §1, §2

Take `COc1cccc(-c2cc(=O)c3ccccc3o2)c1N` [PD98059]: the “phosphorylation of Girdin” value in test [1] is given as “not”.

B1: GST-CT2: purified glutathione S-transferase (GST)-fused CT2, C-terminal half of the Girdin CT domain (protein)
chain: GEFSLLHDHEAWSSSGSSPIQYLKRQTRSSPVLQHKISETLESRHHKIKTGSPGSEVVTLQQFLEESNKLTSVQIKSSSQENLLDEVMKSLSVSSDFLGKDKPVSCGLARSVSGKTPGDFYDRRTTKPEFLRPGPRKTEDTYFISSAGKPTPGTQGKIKLVKESSLSRQSKDSNPYATLPRASSVISTAEGTTRRTSIHDFLTKDSRLPISVDSPPAAADSNTTAASNVDKVQESRNSKSRSREQQSS
modifications: left off: a dimerising Fc or GST
notes: purified glutathione S-transferase (GST)-fused CT2, C-terminal half of the Girdin CT domain
One may read the Kd as the equilibrium constant for the complex coming apart. With B1, in test [2] (GST-CT2 1 μM, F-actin 0-2.5 μM, Scatchard analysis, read-out: dissociation constant (Kd) for F-actin), the Kd came to 1030 nM.

B2: phosphorylated GST-CT: purified GST-CT phosphorylated by Akt in vitro (protein)
chain: IMDQYKFYDPSPPRRRGNWITLKMRKLIKSKKDINRERQKSLTLTPTRSDSSEGFLQLPHQDSQDSSSVGSNSLEDGQTLGTKKSSMVALKRLPFLRNRPKDKDKMKACYRRSMSMNDLVQSMVLAGQWTGSTENLEVPDDISTGKRRKELGAMAFSTTAINFSTVNSSAGFRSKQLVNNKDTTSFEDISPQGVSDDSSTGSRVHASRPASLDSGRTSTSNSNNNASLHEVKAGAVNNQSRPQSHSSGEFSLLHDHEAWSSSGSSPIQYLKRQTRSSPVLQHKISETLESRHHKIKTGSPGSEVVTLQQFLEESNKLTSVQIKSSSQENLLDEVMKSLSVSSDFLGKDKPVSCGLARSVSGKTPGDFYDRRTTKPEFLRPGPRKTEDTYFISSAGKPTPGTQGKIKLVKESSLSRQSKDSNPYATLPRASSVISTAEGTTRRTSIHDFLTKDSRLPISVDSPPAAADSNTTAASNVDKVQESRNSKSRSREQQSS
modifications: left off: a dimerising Fc or GST
notes: purified GST-CT phosphorylated by Akt in vitro
Regarding B2, in test [2] (GST-CT phosphorylated in vitro, detected with anti-P-Girdin antibody), the “affinity for F-actin after phosphorylation by Akt” value was “did not attenuate”. In addition, the “binding to PI(4)P” value in test [3] is “bound to neither”. Moreover, the “binding to PI(3)P” value in test [4] is reported as “bound to neither”.
